# Results published in patent US12195506B2, “Immunotherapy with A*01 restricted peptides and combination of peptides against cancers and related methods” (Immatics Biotechnologies GmbH, priority 2018, dated 2025).
# Molecular target: HLA-A*01:01 (Homo sapiens, UniProt P04439, A114D/A174V/A182V/D101N/D185E/E176A/E190D/L180R/Q94H/R68K/S129P/T187R/V100A/V91M/W191G)
# Assay: MHC binding assay: UV-ligand exchange, ELISA of stabilized MHC complexes (peptide exchange yield)
# Conditions: binding to HLA-A*01:01, UV-ligand exchange
# Outline: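 Peptide–MHC complexes were formed by UV-induced exchange of a photocleavable ligand for the test peptide. Exchange yield was measured by streptavidin-capture ELISA of 100-fold diluted complexes, detected with HRP anti-β2m at A450. Refolded HLA-A*02:01/MLA-001 monomers at 15-500 ng/ml served as standards.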
row,Peptide exchange,Substance
1,+++ (>50 = +++),243 (LTSEDTGAY; listed as Homo sapiens) [compound 243]
2,++ (>20% = ++),244 (VTKYIAGPY; listed as Homo sapiens) [compound 244]
3,+++ (>50 = +++),245 (LSDNAANRY; listed as Homo sapiens) [compound 245]
4,++ (>20% = ++),246 (ARLEGEIATY; listed as Homo sapiens) [compound 246]
5,++ (>20% = ++),247 (SMIRVGTNY; listed as Homo sapiens) [compound 247]
6,+++ (>50 = +++),248 (VTDIDELGK; listed as Homo sapiens) [compound 248]
7,+++ (>50 = +++),249 (GVGFTELEY; listed as Homo sapiens) [compound 249]
8,++ (>20% = ++),250 (GYVCNACGLY; listed as Homo sapiens) [compound 250]
9,++ (>20% = ++),251 (GIEMTYETY; listed as Homo sapiens) [compound 251]
10,++ (>20% = ++),252 (DTTSHTYLQY; listed as Homo sapiens) [compound 252]
11,++++ (>75% = ++++),253 (YLESHGLAY; listed as Homo sapiens) [compound 253]
12,++++ (>75% = ++++),254 (FLFNDALLY; listed as Homo sapiens) [compound 254]
13,++ (>20% = ++),255 (WELDSLEY; listed as Homo sapiens) [compound 255]
14,++ (>20% = ++),256 (HAFESNNFIY; listed as Homo sapiens) [compound 256]
15,++++ (>75% = ++++),257 (KSEMNVNMKY; listed as Homo sapiens) [compound 257]
16,+++ (>50 = +++),258 (RPSSVLTIY; listed as Homo sapiens) [compound 258]
17,++ (>20% = ++),259 (APDEVVALL; listed as Homo sapiens) [compound 259]
18,+++ (>50 = +++),260 (KPTEDSANVY; listed as Homo sapiens) [compound 260]
19,++++ (>75% = ++++),261 (MTEGSTVNTEY; listed as Homo sapiens) [compound 261]
20,+++ (>50 = +++),262 (NVKHFLNDLY; listed as Homo sapiens) [compound 262]
21,++ (>20% = ++),263 (DCMDTEGSYM; listed as Homo sapiens) [compound 263]
22,++ (>20% = ++),264 (YRDPVFVSL; listed as Homo sapiens) [compound 264]
23,++ (>20% = ++),265 (LSDIDSRYI; listed as Homo sapiens) [compound 265]
24,++++ (>75% = ++++),266 (LTDSFLLRF; listed as Homo sapiens) [compound 266]
25,+++ (>50 = +++),267 (IVADDTVY; listed as Homo sapiens) [compound 267]
26,+ (>10% =+),268 (AILHHLYFY; listed as Homo sapiens) [compound 268]
27,+++ (>50 = +++),269 (LPSPAATIWDY; listed as Homo sapiens) [compound 269]

row,Peptide exchange,Substance
1,++ (>20% = ++),270 (DLKIDLAAQY; listed as Homo sapiens) [compound 270]
2,++ (>20% = ++),271 (VAEPPVVCSY; listed as Homo sapiens) [compound 271]
3,+++ (>50 = +++),272 (IPQDECLRY; listed as Homo sapiens) [compound 272]
4,++ (>20% = ++),273 (CGPNEINHFY; listed as Homo sapiens) [compound 273]
5,+++ (>50 = +++),274 (YADIHGDLL; listed as Homo sapiens) [compound 274]
6,+++ (>50 = +++),275 (ESDEMENLLTY; listed as Homo sapiens) [compound 275]
7,+++ (>50 = +++),276 (QITSFASGTSY; listed as Homo sapiens) [compound 276]
8,++ (>20% = ++),277 (LPAPGFLFY; listed as Homo sapiens) [compound 277]
9,++ (>20% = ++),278 (AATVKSDIY; listed as Homo sapiens) [compound 278]
10,+++ (>50 = +++),279 (LMTVLLKY; listed as Homo sapiens) [compound 279]
11,++++ (>75% = ++++),280 (TTEMVSNESVDY; listed as Homo sapiens) [compound 280]
12,++ (>20% = ++),281 (YPDLSELLM; listed as Homo sapiens) [compound 281]
13,++ (>20% = ++),282 (QAMPSWPTAAY; listed as Homo sapiens) [compound 282]
14,++ (>20% = ++),283 (ETILVSSSY; listed as Homo sapiens) [compound 283]
15,++ (>20% = ++),284 (TCSHTFVYY; listed as Homo sapiens) [compound 284]
16,+++ (>50 = +++),285 (VLPHHSEGACVY; listed as Homo sapiens) [compound 285]
17,+++ (>50 = +++),286 (ATDMEGNLNY; listed as Homo sapiens) [compound 286]
18,+++ (>50 = +++),287 (ENSIEDLQY; listed as Homo sapiens) [compound 287]
19,+ (>10% =+),288 (TEEKFVSY; listed as Homo sapiens) [compound 288]
20,++++ (>75% = ++++),289 (YTSHEDIGY; listed as Homo sapiens) [compound 289]
21,++ (>20% = ++),290 (GQFTGTAGACRY; listed as Homo sapiens) [compound 290]
22,++++ (>75% = ++++),291 (TSDVTGSLTY; listed as Homo sapiens) [compound 291]
23,++++ (>75% = ++++),292 (VLDFAPPGASAY; listed as Homo sapiens) [compound 292]
24,+++ (>50 = +++),294 (MMEMEGMY; listed as Homo sapiens) [compound 294]
25,+++ (>50 = +++),295 (GQRLDEAMISY; listed as Homo sapiens) [compound 295]
26,++ (>20% = ++),296 (HMLAAMAY; listed as Homo sapiens) [compound 296]
27,+++ (>50 = +++),297 (RLDEAMISY; listed as Homo sapiens) [compound 297]

row,Peptide exchange,Substance
1,++ (>20% = ++),298 (KFDVINHYF; listed as Homo sapiens) [compound 298]
2,++ (>20% = ++),299 (EVDSVALSL; listed as Homo sapiens) [compound 299]
3,+++ (>50 = +++),300 (VSINPNSGDIY; listed as Homo sapiens) [compound 300]
4,+++ (>50 = +++),301 (ESQTCASDY; listed as Homo sapiens) [compound 301]
5,+++ (>50 = +++),302 (FYLSTPENYHY; listed as Homo sapiens) [compound 302]
6,+++ (>50 = +++),303 (GFGGLSSQGVYY; listed as Homo sapiens) [compound 303]
7,++ (>20% = ++),304 (FSENLIYTYI; listed as Homo sapiens) [compound 304]
8,++++ (>75% = ++++),305 (YADLLIYTY; listed as Homo sapiens) [compound 305]
9,++ (>20% = ++),306 (KSFETTVRY; listed as Homo sapiens) [compound 306]
10,+++ (>50 = +++),307 (DTDDRELRY; listed as Homo sapiens) [compound 307]
11,+ (>10% =+),308 (ELAAGQVVY; listed as Homo sapiens) [compound 308]
12,+++ (>50 = +++),309 (EVDRNLIQY; listed as Homo sapiens) [compound 309]
13,++ (>20% = ++),310 (KAFQELGVRY; listed as Homo sapiens) [compound 310]
14,++ (>20% = ++),311 (TVTDGTHTDFY; listed as Homo sapiens) [compound 311]
15,++ (>20% = ++),312 (VTDGINPLI; listed as Homo sapiens) [compound 312]
16,+++ (>50 = +++),313 (VTDGTHTDFY; listed as Homo sapiens) [compound 313]
17,++ (>20% = ++),314 (PPEANSLQGALY; listed as Homo sapiens) [compound 314]
18,+++ (>50 = +++),315 (VLKIELETY; listed as Homo sapiens) [compound 315]
19,++ (>20% = ++),316 (YTCEECGQAF; listed as Homo sapiens) [compound 316]
20,++ (>20% = ++),317 (EDLLEVLDMY; listed as Homo sapiens) [compound 317]
21,+++ (>50 = +++),318 (YMTSMALNY; listed as Homo sapiens) [compound 318]
22,++++ (>75% = ++++),319 (FTDPHIITF; listed as Homo sapiens) [compound 319]
23,++ (>20% = ++),320 (QALQDKLQTFY; listed as Homo sapiens) [compound 320]
24,++ (>20% = ++),321 (DGIADASNLSYY; listed as Homo sapiens) [compound 321]
25,++++ (>75% = ++++),322 (FSELNPLALY; listed as Homo sapiens) [compound 322]
